Columns and labels:
[1] = tested on: bleomycin-induced pulmonary fibrosis (BIPF); experiment: Bleomycin-induced pulmonary fibrosis mouse model, prevention (inhalation from day 1); assay type: in vivo; conditions: for Ashcroft score (normal 0, control 6.25): nebulized 1 hour once daily for 10 days from 1 day after bleomycin
Protocol: The experimental animals used were 8-week-old female C57BL/6N (KBSI, Daejeon, Korea) mice, and were set as a normal control group (Normal, PBS) and two dose of administration groups (composition of the present disclosure including rhHAPLN1 protein). The water was changed every two days and the mice were allowed to eat ad libitum, and the mice were placed in one cage of four, and the temperature in the room was kept at 21° C. to 24° C. and the humidity at 40% to 60%, and the day and night cycles were 12 hours each.
To establish a bleomycin-induced pulmonary fibrosis (PF) model, 8-week-old female C57BL/6N mice were used, and divided into 4 groups (Normal, Control, 0.0005% (w/w) rhHAPLN1, 0.0015% (w/w) rhHAPLN1), with 4 mice per group, and the IPF disease induction method was referred to the paper by Liu et al. (Methods in Molecular Biology 2017, DOI: 10.1007/978-1-4939-7113-8_2) (see FIG. 12A). Administration of bleomycin (Bleomycin sulfate from Streptomyces verticillus. B8416; Sigma-Aldrich Co.) to induce idiopathic pulmonary fibrosis (IPF) was performed using a 1 ml-syringe and an oral dosing needle (Oral Zonde Needle 0.9×50 mm; 20 Guage) was used to anesthetize the patient and then carefully instillated orally intratracheally in a single 25 μl dose at a concentration of 2 U/kg, followed by nebulization with fresh 10 ml phosphate-buffered saline (1×PBS, pH 7.4; Gibco Co.) added dropwise to a nebulizer to generate nebulization and be freely inhaled.
Starting 1 day after bleomycin administration, the control was a mixture of 50 μl of a stock solution consisting of 20 mM Tris-HCl, 0.5 M NaCl, pH 8.0, 50% glycerol and 10 ml PBS (1×, pH 7.4, Gibco Co.) solution, while the two groups for the compositions of the present disclosure were treated with 50 μl of rhHAPLN1 stock solution at a rhHAPLN1 weight ratio concentration of 0.0005% (w/w), in other words, 5,000 ng/ml, and 0.0015% (w/w), in other words, 15,000 ng/ml, respectively, were mixed in 10 ml PBS (1×, pH 7.4, Gibco Co.) and administered to each group once a day for 1 hour by nebulization via the nebulizer described above. The weight of each experimental animal was measured every 2 days to confirm that there was no change in weight, and a mass dosing system and aerosol chamber (Data Science International Co.) were used to generate the mist. […]
(§1) Next, three tissue slides were prepared per mouse by cutting the middle portion of the left large lobe of the mouse, and three sections were photographed randomly on one slide, and then, for a total of nine sections, the stained darker part was distinguished from the unstained white part, and the area of the stained darker part was measured using Image J software, and each figure obtained was averaged to obtain an average value per mouse. […]

[2] = tested on: bleomycin-induced pulmonary fibrosis (BIPF); experiment: Bleomycin-induced pulmonary fibrosis mouse model, treatment (inhalation from day 8); assay type: in vivo
Protocol: An experiment was conducted to verify the effect of ameliorating bleomycin-induced pulmonary fibrosis (BIPF) already developed by repeatedly administering the composition of the present disclosure by inhalation to animals with pulmonary fibrosis. Here, experimental results are presented that are basically similar to Example 12, but bleomycin-induced pulmonary fibrosis (BIPF) was sufficiently generated 7 days after bleomycin treatment, and that the composition of the present disclosure has the ability to treat fibrotic diseases.
To establish a bleomycin-induced pulmonary fibrosis (PF) model, 8-week to 10-week-old female C57BL/6N mice were used, and divided into 4 groups (Normal, PBS Control, 0.00075% (w/w) rhHAPLN1, 0.0015% (w/w) rhHAPLN1), with 4 mice per group, and the IPF disease induction method was referred to the paper by Liu et al. (Methods in Molecular Biology 2017, DOI: 10.1007/978-1-4939-7113-8_2) (see FIG. 13A). […]
Starting 8 days after bleomycin administration, the control was a mixture of 50 μl of a stock solution consisting of 20 mM Tris-HCl, 0.5 M NaCl, pH 8.0, 50% glycerol and 10 ml PBS (1×, pH 7.4, Gibco Co.) solution. […] The weight of each experimental animal was measured every 2 days to confirm that there was no change in weight, and a mass dosing system and aerosol chamber (Data Science International Co., Ltd.) were used to generate the fog. […]
as §1

B1: rhHAPLN1: recombinant human HAPLN1 protein of SEQ ID NO: 1 produced in CHO-K1 cells, stabilized in acetic acid buffer, sucrose, PS80, pH 5.0 (protein, listed as Homo sapiens)
chain: MKSLLLLVLISICWADHLSDNYTLDHDRAIHIQAENGPHLLVEAEQAKVFSHRGGNVTLPCKFYRDPTAFGSGIHKIRIKWTKLTSDYLKEVDVFVSMGYHKKTYGGYQGRVFLKGGSDSDASLVITDLTLEDYGRYKCEVIEGLEDDTVVVALDLQGVVFPYFPRLGRYNLNFHEAQQACLDQDAVIASFDQLYDAWRGGLDWCNAGWLSDGSVQYPITKPREPCGGQNTVPGVRNYGFWDKDKSRYDVFCFTSNFNGRFYYLIHPTKLTYDEAVQACLNDGAQIAKVGQIFAAWKILGYDRCDAGWLADGSVRYPISRPRRRCSPTEAAVRFVGFPDKKHKLYGVYCFRAYN
[1]; composition 1, rhHAPLN1 0.0005% (w/w)
  Ashcroft score (normal 0, control 6.25): 5.25
[1]; composition 2, rhHAPLN1 0.0015% (w/w)
  Ashcroft score (normal 0, control 6.25): 0.5
[1]; rhHAPLN1 0.0015% (w/w)
  H&E lung tissue form (FIG. 12B): quite similar to that of the normal group
  average area of dark (fibrotic) H&E-stained lung area compared to control (FIG. 12C): reduced to be quite close to the normal group
[2]; rhHAPLN1 0.0015% (w/w)
  H&E lung tissue form (FIG. 13B): quite similar to that of the normal group
[2]; rhHAPLN1 0.0015% (w/w), nebulized 1 hour once daily for 14 days from 8 days after bleomycin
  reduction of average area of dark (fibrotic) lung area compared to pulmonary fibrosis without treatment (FIG. 13C): 51%
[2]; rhHAPLN1 nebulized from 8 days after bleomycin
  Ashcroft score evaluation (FIG. 13E): excellent therapeutic effect

From US20240350583A1, “COMPOSITION FOR PREVENTING OR TREATING FIBROTIC DISEASES, COMPRISING HAPLN1” (Chung Ang University Industry Academic Cooperation …, priority 2021, published 2024)
